# B1: HA-SynDIG1 (full-length mouse SynDIG1, N-terminal HA tag) (natural protein, UniProt A2ANU3 1-258, looked up)
# chain: MDGIIEQKSVLVHSKISDAGKRNGLINTRNFMAESRDGLVSVYPAPQYQSHRLVASAAPGSLEGGRSEPVQQLLDPNTLQQSVESHYRPNIILYSDGVLRSWGDGVATDCCETTFIEDRSPTKDSLEYPDGKFIDLSGDDIKIHTLSYDVEEEEELQELESDYSSDTESEDNFLMMPPRDHLGLSVFSMLCCFWPLGIAAFYLSHETNKAVAKGDFHQASTSSRRALFLAVLSITIGTGIYVGVAVALIAYLSKNNHL
# Target: the molecule itself
# Assay: SDS-resistant dimers on SDS-PAGE
protein,measurement,value
B1,stoichiometry N,2
